Data as given in publication PMC3901395 (2013).
Read-outs that look alike come from different tables or passages of the source.

B1: RNF4-SIM2/3 peptide (peptide)
chain: GDEIVDLTCESLEPVVVDLTHND
modifications: exact peptide ends are only in Figure 2A; limits taken as SIM2 and SIM3 (VDLT, VDLT) plus short flanks; end groups unknown
B2: RNF4-SIM1/2 peptide (peptide)
chain: EAEPIELVETAGDEIVDLTCESL
modifications: exact peptide ends are only in Figure 2A; limits taken as SIM1 and SIM2 (IELV, VDLT) plus short flanks; end groups unknown
B3: RNF4-SIM domain SIM1/2 double mutant (domain or fragment)
chain: MSTRKRRGGAINSRQAQKRTREATSTPEISLEAEPAAAAETAGDEIAAAACESLEPVVVDLTHNDSVVIVDERRRPRRNARRLPQDHADSCVVSSDDEELSRDRDVYVTTHTPRNARDEGATGLR
B4: full-length RNF4 (natural protein)
chain: MSTRKRRGGAINSRQAQKRTREATSTPEISLEAEPIELVETAGDEIVDLTCESLEPVVVDLTHNDSVVIVDERRRPRRNARRLPQDHADSCVVSSDDEELSRDRDVYVTTHTPRNARDEGATGLRPSGTVSCPICMDGYSEIVQNGRLIVSTECGHVFCSQCLRDSLKNANTCPTCRKKINHKRYHPIYI
B5: RNF4-SIM3/4 peptide (peptide)
chain: LEPVVVDLTHNDSVVIVDERR
modifications: exact peptide ends are only in Figure 2A; limits taken as SIM3 and SIM4 (VDLT, VVIV) plus short flanks; end groups unknown
B6: RNF4-SIM domain SIM4 mutant (domain or fragment)
chain: MSTRKRRGGAINSRQAQKRTREATSTPEISLEAEPIELVETAGDEIVDLTCESLEPVVVDLTHNDSAAAADERRRPRRNARRLPQDHADSCVVSSDDEELSRDRDVYVTTHTPRNARDEGATGLR
B7: RNF4-SIM domain SIM1/4 double mutant (domain or fragment)
chain: MSTRKRRGGAINSRQAQKRTREATSTPEISLEAEPAAAAETAGDEIVDLTCESLEPVVVDLTHNDSAAAADERRRPRRNARRLPQDHADSCVVSSDDEELSRDRDVYVTTHTPRNARDEGATGLR
B8: RNF4 1–125 (RNF4-SIM domain, wt) (domain or fragment)
chain: MSTRKRRGGAINSRQAQKRTREATSTPEISLEAEPIELVETAGDEIVDLTCESLEPVVVDLTHNDSVVIVDERRRPRRNARRLPQDHADSCVVSSDDEELSRDRDVYVTTHTPRNARDEGATGLR

How the values were obtained:
Test in all cases: ITC
mono-SUMO2 [1] = biological target: T1, mono-SUMO2 (UniProt P61956 12-93)
T1 sequence (P61956 12-93): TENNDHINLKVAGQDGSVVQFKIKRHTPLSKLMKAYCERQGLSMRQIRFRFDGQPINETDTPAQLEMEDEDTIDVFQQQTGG

[2] = biological target: T2, linear di-SUMO2 (2×SUMO2-ΔN11) (UniProt P61956 12-95; P61956 12-95)
T2 sequence (P61956 other isoform, or with tags, fused parts or gaps mutant): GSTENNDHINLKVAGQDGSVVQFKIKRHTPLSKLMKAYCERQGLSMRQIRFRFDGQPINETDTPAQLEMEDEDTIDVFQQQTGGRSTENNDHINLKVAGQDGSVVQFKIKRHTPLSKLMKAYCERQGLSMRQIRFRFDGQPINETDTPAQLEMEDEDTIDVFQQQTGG

[3] = biological target: T3, linear tetra-SUMO2 (4×SUMO2-ΔN11) (UniProt P61956 12-95; P61956 12-95; P61956 12-95; P61956 12-95)
T3 sequence (P61956 other isoform, or with tags, fused parts or gaps mutant): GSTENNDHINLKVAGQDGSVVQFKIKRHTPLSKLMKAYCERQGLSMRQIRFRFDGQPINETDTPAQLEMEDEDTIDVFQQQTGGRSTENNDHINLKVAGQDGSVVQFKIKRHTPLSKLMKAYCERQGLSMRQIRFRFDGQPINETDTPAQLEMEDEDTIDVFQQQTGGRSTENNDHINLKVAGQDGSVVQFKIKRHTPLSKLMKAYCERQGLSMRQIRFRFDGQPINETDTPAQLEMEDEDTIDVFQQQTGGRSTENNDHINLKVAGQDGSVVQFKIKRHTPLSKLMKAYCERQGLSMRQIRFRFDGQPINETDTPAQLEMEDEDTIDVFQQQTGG

linear tri-SUMO = linear tri-SUMO (UniProt P61956 12-95; P61956 12-95; P61956 12-95)
Sequence of linear tri-SUMO (P61956 other isoform, or with tags, fused parts or gaps): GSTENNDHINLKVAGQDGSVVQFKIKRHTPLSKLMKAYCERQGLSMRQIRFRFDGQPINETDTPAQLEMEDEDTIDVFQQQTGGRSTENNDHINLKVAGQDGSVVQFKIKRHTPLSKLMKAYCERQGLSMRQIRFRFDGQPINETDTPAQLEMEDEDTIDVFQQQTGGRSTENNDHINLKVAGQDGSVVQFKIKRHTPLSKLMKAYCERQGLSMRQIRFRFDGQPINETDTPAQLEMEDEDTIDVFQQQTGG

[4] = biological target: T2, linear di-SUMO2 (2×SUMO2-ΔN11); remark: listed apart in the source
[5] = biological target: T3, linear tetra-SUMO2 (4×SUMO2-ΔN11); remark: listed apart in the source
mono-SUMO1 = mono-SUMO1 (UniProt P63165 16-97)
Sequence of mono-SUMO1 (P63165 16-97): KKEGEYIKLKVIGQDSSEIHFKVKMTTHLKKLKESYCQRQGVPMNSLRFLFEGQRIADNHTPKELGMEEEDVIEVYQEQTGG

mono-SUMO2 [6] = biological target: T1, mono-SUMO2; remark: listed apart in the source

Row | Binder | Kd (mono-SUMO2 [1]) [µM] | Kd [2] [µM] | further results
1 | B1 | 106 |  | 
2 | B2 | 121 | 44 | 
3 | B3 |  |  | Kd [3]: 1.6 µM
4 | B4 |  |  | Kd (linear tri-SUMO): 1.5 µM; Kd [4]: 3.5 µM; Kd [5]: 0.8 µM
5 | B5 | 61 | 72 | 
6 | B6 |  | 16 | 
7 | B7 |  | 14 | 
8 | B8 |  |  | Kd (mono-SUMO1): 123 µM; Kd (mono-SUMO2 [6]): 145 µM
